The values that follow come from patent US9403875B2, “Cage-like bifunctional chelators, copper-64 radiopharmaceuticals and PET imaging using the same” (UNIVERSITY OF SOUTHERN CALIFORNIA, priority 2009, dated 2016).

The subject of data set [1] is U87 MG human glioblastoma cell line (integrin αvβ3-positive). The experiment in a line: Cell uptake study in U87 MG cells. Format: cell-based. The conditions noted are these: blocking with excess cold cyclic RGD. The procedure:
U87 MG human glioblastoma cell line (integrin αvβ3-positive) was obtained from the American Type Culture Collection (ATCC, Manassas, Va.) and maintained under standard conditions according to ATCC as following: The U87 MG glioma cells were grown in Gibco's Dulbecco's medium supplemented with 10% fetal bovine serum (FBS), 100 IU/mL penicillin, and 100 μg/mL streptomycin (Invitrogen Co, Carlsbad, Calif.), at 37° C. in humidified atmosphere containing 5% CO2. The U87 MG glioma cells were grown in culture until sufficient cells were available.
The cell uptake study was performed as described in the literature with some modifications. […] The tumor cells were then washed three times with chilled PBS and harvested by 0.1 N NaOH solution containing 0.5% sodium dodecyl sulfate (SDS). The cell suspensions were collected and measured in the gamma counter.

The nature of data set [2]: MicroPET imaging of U87 MG tumor-bearing nude mice. Format: in vivo, athymic nude mice. Particulars: athymic nude, mouse, in vivo, iv, 11.1 MBq, total radioactivity. The procedure: (§1) Athymic nude mice (about 10-20 weeks old, with a body weight of 25-35 g) were obtained from Harlan (Charles River, Mass.). All animal experiments were performed according to a protocol approved by University of Southern California Institutional Animal Care and Use Committee. The U87 MG human glioma xenograft model was generated by subcutaneous injection of 5×10^6 U87 MG human glioma cells into the front flank of athymic nude mice. The tumors were allowed to grow 3-5 weeks until 200-500 mm^3 in volume. Tumor growth was followed by caliper measurements of the perpendicular dimensions.
(§2) MicroPET scans and imaging analysis were performed using a rodent scanner (microPET R4; Siemens Medical Solutions) as previously reported (26). Li, Z., Cai, W., Cao, Q., Chen, K., Wu, Z., He, L., and Chen, X. (2007) ^64Cu-labeled tetrameric and octameric RGD peptides for small-animal PET of tumor αvβ3 integrin expression. J Nucl Med 48, 1162-71. […] Ten minute static scans were acquired at 1, 2, 4, and 20 h post injection. The images were reconstructed by a 2-dimensional ordered-subsets expectation maximum (OSEM) algorithm. For each microPET scan, regions of interest were drawn over the tumor, normal tissue, and major organs on the decay-corrected whole-body coronal images. The radioactivity concentration (accumulation) within the tumor, muscle, liver, and kidneys were obtained from the mean value within the multiple regions of interest and then converted to % ID/g.

The subject of data set [3] is U87 MG human glioma xenograft tumors. The experiment in a line: MicroPET imaging of U87 MG tumor-bearing nude mice. Format: in vivo, athymic nude mice. The conditions noted are these: for uptake in U87 MG tumors: microPET. The method, then:
as §1, §2

The nature of data set [4]: Biodistribution by direct tissue sampling in U87 MG tumor bearing nude mice. The conditions noted are these: athymic nude, mouse, in vivo, 0.37 MBq, total radioactivity. The method, then: All mice were sacrificed and dissected at 20 h after the injection of the tracers. Blood, U87 MG tumor, major organs, and tissues were collected and weighed wet. The radioactivity in the tissues was measured using the gamma counter. The results were presented as percentage injected dose per gram of tissue (% ID/g). For each mouse, the radioactivity of the tissue samples was calibrated against a known aliquot of the injected activity. Mean uptake (% ID/g) for each group of animals was calculated with standard deviations.
To validate the accuracy of small animal PET quantification, we also performed a biodistribution experiment by using the direct tissue sampling technique. The data shown as the percentage administered activity (injected dose) per gram of tissue (% ID/g) in FIG. 19A. Both ^64Cu-AmBaSar-RGD and ^64Cu-DOTA-RGD mainly accumulated in kidneys, liver, stomach, intestine, and tumor. […] This difference was consistent with the excretion pattern from the microPET imaging results.

The nature of data set [5]: Lipophilicity (octanol/water partition coefficient) of 64Cu-AmBaSar and 64Cu-DOTA. In kind it is physicochemical. The conditions noted are these: 1-octanol/PBS, pH 7.4. The procedure:
Information about the lipophilicity of the ^64Cu-AmBaSar and ^64Cu-DOTA was obtained by measuring their partitioning in a 1-octanol/water system. Counts in samples were used to determine partition coefficients (log P) values, calculated using a known formula. The log P values were measured at pH 7.4 in PBS. The log P value of ^64Cu-AmBaSar is −2.6, and the corresponding value of ^64Cu-DOTA is −2.3. Both ^64Cu-AmBaSar and ^64Cu-DOTA are hydrophilic.
The partition coefficient value was expressed as log P. Log P of ^64Cu-AmBaSar or ^64Cu-DOTA was determined by measuring the distribution of radioactivity in 1-octanol and PBS. A 5 μL sample of ^64Cu-AmBaSar or ^64Cu-DOTA in PBS was added to a vial containing 1 mL each of 1-octanol and PBS. After vortexing for 5 min, the vial was centrifuged for 5 min to ensure complete separation of layers. Then, 5 μL of each layer was pipetted into other test tubes and radioactivity was measured using a gamma counter (Packard). The measurement was repeated three times.

The nature of data set [6]: MicroPET imaging of radiolabeled BFCs in Balb/c mice. Format: in vivo. The conditions noted are these: between 30 min and 2 hours, micro-PET region of interest quantification. The method, then: MicroPET imaging and biodistribution studies were performed with the non-targeted ^64Cu-AmBaSar and ^64Cu-DOTA complexes to allow a comparison of their base-line organ uptake and clearance properties. After 30 min, the radioactivity quickly cleared from muscle and blood, and mainly localized in the bladder and kidneys. Regarding ^64Cu-DOTA, the radioactivity mainly localized in the bladder, kidneys, and liver.
MicroPET imaging and biodistribution of the radiolabeled BFCs were performed on Balb/c mice to evaluate their in vivo properties. Animals (Balb/c, n=2) were injected with 0.3 mCi ^64Cu-AmBaSar or ^64Cu-DOTA through the tail vein. PET imaging (10-min static scans) was performed using a microPET R4 scanner (Concorde Microsystems, Inc, Knoxville, Tenn.), with 120 transaxial planes and spatial resolution of 1.2 mm, at 30 min and 2 h postinjection. The microPET data were reconstructed using the ordered subsets expectation maximization (OSEM) algorithm using the microPET Manager Software (CTI Concorde Microsystems, Inc, Knoxville, Tenn.). Images were then analyzed using the Acquisition Sinogram Image Processing (ASIPro) software (CTI Concorde Microsystems, Inc, Knoxville, Tenn.).

The nature of data set [7]: Biodistribution of radiolabeled BFCs in Balb/c mice. Format: in vivo. The procedure:
The biodistribution of ^64Cu-AmBaSar and ^64Cu-DOTA were assessed in Balb/c mice. Each animal was sacrificed at the time interval 2 h and the organs dissected. The values of percent injected dose/gram (ID/g %) in different organs were compared and illustrated in FIG. 13. The ^64Cu-AmBaSar cleared rapidly from the blood and predominantly through the kidneys. After 2 h, the kidney and liver uptake reached 1.09±0.27, 0.14±0.01% ID/g, respectively, which is consistent with the excretion pattern from the microPET imaging results. The ^64Cu-DOTA cleared through the kidney and liver, with uptake reached 1.28±0.41, 1.25±0.09, respectively, by 2 h.
For biodistribution studies, one group of mice (Balb/c, n=3) was injected intravenously with the radiotracer ^64Cu-AmBaSar (10 μCi, 100 μL). Another group of mice was injected similarly with ^64Cu-DOTA (10 μCi, 100 μL). Activity injected into each mouse was measured in a dose calibrator (Capintec). After inhalation anesthesia, animals were sacrificed at 2 h postinjection. Tissues and organs of interest were separated and weighed. Radioactivity in each organ was measured using a gamma counter, and radioactivity uptake was expressed as % ID/g. Mean uptake (% ID/g) for each group of animals was calculated with standard deviations.

Where [8] appears, read: 2 h postinjection, Balb/c mice, i.v.

Each structure is given as a SMILES string.

In general, tissue uptake refers to the percentage of the injected dose found per gram of tissue. As to `N=C(N)NCCC[C@@H]1NC(=O)[C@H](CCCCNC(=O)CN2CCN(CC(=O)O)CCN(CC(=O)O)CCN(CC(=O)O)CC2)NC(=O)[C@@H](Cc2ccc(O)cc2)NC(=O)[C@H](CC(=O)O)NC(=O)CNC1=O` [^64Cu-DOTA-RGD, metal not drawn], the “binding to U87 MG cells in presence of excess cold cyclic RGD peptide” value in data set [1] is reported as “efficiently blocked”. Also, the tissue uptake at 1 h worked out at 2.28 ± 1.08 %ID/g in data set [2] (liver uptake) and 1.52 ± 0.46 %ID/g in data set [2] (renal uptake). Also, the tissue uptake at 2 h in data set [2] (liver uptake) was found to be 2.31 ± 1.34 %ID/g; in data set [2] (renal uptake) it was 1.33 ± 0.23 %ID/g. Further, the tissue uptake at 4 h in data set [2] (liver uptake) amounted to 2.15 ± 0.9 %ID/g; in data set [2] (renal uptake) it was 1.55 ± 0.61 %ID/g. Also, the tissue uptake at 20 h was determined as 2.52 ± 1.43 %ID/g in data set [2] (liver uptake), 1.58 ± 0.13 %ID/g in data set [2] (renal uptake), 0.98 ± 0.4 %ID/g in data set [4] (kidneys uptake) and 2.16 ± 0.85 %ID/g in data set [4] (liver uptake). In addition, the “uptake in U87 MG tumors” value in data set [3] (1 h p.i.) was 2.03±0.10 % ID/g; in data set [3] (2 h p.i.) it was 1.97±0.05 % ID/g; in data set [3] (4 h p.i.) it was 1.88±0.29 % ID/g; in data set [3] (20 h p.i.), 0.88±0.07 % ID/g. The “liver uptake compared with 64Cu-AmBaSar-RGD” value in data set [3] (mouse, in vivo) was 2-3 times.

Broadly, the log P is a log measure of how a compound divides between an organic and an aqueous phase. A high value points to higher lipophilicity. Take `O=C([O-])CN1CCN(CC(=O)[O-])CCN(CC(=O)O)CCN(CC(=O)O)CC1.[64Cu+2]` [^64Cu-DOTA]: the “log P” value in data set [5] is −2.3. Moreover, in data set [6], the “decrease of renal activity” value stood at 66%. The “liver uptake relative to 64Cu-AmBaSar” value in data set [7] (2 h post injection) is listed as “eight times higher”. In data set [7] (setting [8]), this molecule displayed a kidney uptake of 1.28±0.41 % ID/g and a liver uptake of 1.25±0.09 % ID/g.
